Data as given in the RNAGym collection of RNA variant scans (doi:10.7554/elife.90254).

B1: OR4K15 (parent)
chain: GUUAACGGUCAUAGGCCAUGGAAACUAGGAGCACCAUUUCGCUGCCAGUGAAGAAAUGAACAAAGAAAAUCUGGGCCAGGCAGGCAUCAAAAGAAAUAGUCUUGCGCUCAACCAGAAAGUCUGUAAUCAUUUUAAGGGUA

Variants of: B1
Test: self-cleavage, relative activity (ratio to wild type); higher = more cleavage; in vitro, sequencing; the parent is a self-cleaving ribozyme

Variant | self-cleavage
A4G A95G | 1.4
A4G A95C | 1.49
U3C A126G | 0.58
U3C A126U | 0.79
U2C C10A | 1.94
U2A A56G | 0.89
A4G G106A | 0.02
U2C A18U | 0.37
U2C A18G | 0.6
U2G A62G | 0.65
U2A U131C | 0.69
U2A G65A | 0.89
U2C U70A | 0.71
U2C U70C | 0.46
A4G A5G | 1.25
A4G A114C | 0.17
U2G A56G | 1.23
U3A U103C | 0.76
U3C U130A | 1.27
U3A A27G | 1.25
U3A U70C | 1.14
U2C U72A | 0.1
U2C U72C | 0.15
U3C A91G | 0.84

Variant | self-cleavage
U3C A91U | 1.11
U3C A91C | 0.84
U2C U26A | 0.37
U3A A52U | 0.58
U3C A64G | 0.7
A4G U72A | 0.22
A4G U72C | 0.21
U2G U39A | 0.87
U3A A30G | 0.63
A4G A56G | 1.02
U2C A90C | 1.23
U2C A90G | 0.54
G1A U43C | 2.15
U2C A78G | 0.21
U2A A63U | 1.62
U3C A51G | 1.12
A4G A90G | 1.11
U2C A36G | 1.25
U2C A36U | 1.11
A4G U12C | 0.58
U3A U57C | 1.14
A4G U70A | 1.14
U3A A64C | 1.33
U2C A56G | 1.12

Variant | self-cleavage
U3C A52G | 1.1
U3C A98U | 2.88
G1U A52G | 1.83
U2C C45G | 1.29
U2A A90U | 1.25
A4G A52U | 0.92
A4G A92U | 1.44
A4G A92G | 1.18
G1U A95G | 0.56
U3C G119U | 0.99
U3C G119A | 1.44
U2A U43C | 0.84
U3C A33G | 0.79
U2C A69G | 0.91
A4G A13G | 1.27
U2C G29A | 1.36
U3C U131C | 0.51
G1A A59G | 1.36
U3A A96G | 1.18
U2G A135U | 1.03
U2C G83A | 0.87
U2A A69G | 1.62
U3C U72C | 0.25
G1A U37C | 1.61

Variant | self-cleavage
U2C U39C | 0.7
U2C U39G | 1.43
U2C U39A | 1.17
U2C U131A | 1.39
U2C U131C | 1.08
U2C U122C | 0.25
U2C U122G | 1.35
U3G G41U | 1
U2A U39C | 1.26
G1U U139C | 0.98
U2A A114U | 0.33
A4G U43G | 0.55
A4G U43A | 1.26
A4G U38C | 1.15
U2C U19A | 1.16
U2C U19C | 0.96
U2C A33U | 1.24
U2C A33G | 0.74
U2A A60G | 1.13
U2A A60C | 1.97
U3A G74A | 0.39
A4G C121A | 2.03
A4G G138A | 0.99
U2C C105U | 0.03

Variant | self-cleavage
U2C G119A | 1.05
U2C A94U | 1.48
U2C A94G | 1.08
U3C A30G | 0.92
A4G A134G | 0.91
U2C A118U | 0.44
U2C A118G | 0.88
U3C A89C | 0.91
A4G A64G | 1.21
U2C G41A | 1.29
G1C A111G | 0.01
A4G A89G | 1.34
U3C U43A | 1.31
U2C A64G | 1.48
U2C C42U | 1.46
U2G A91G | 1.16
U2G A69U | 0.94
U3C U102A | 0.38
U2C G48U | 0.43
U2C A24C | 1.16
U2C A24U | 1.45
U2G U103C | 0.85
U2A A98G | 0.1
U3C A60C | 0.91

Variant | self-cleavage
U3G A66G | 1.01
U3C A94G | 2.02
U2C A11G | 1.16
U3A A67U | 0.46
U2A U130C | 0.85
U2C A114U | 0.09
U2A A22G | 1.33
U2C A62C | 1.39
U2C A62G | 0.36
U3C A111G | 0.03
A4C U100C | 1.19
U2C A117U | 1.05
U2C A5U | 1.16
U2A U70C | 0.67
U3C A68G | 0.86
U3C A68C | 1.6
U2A A18U | 1.37
G1A | 1.55
G1U | 1.07
U2A U49A | 1.64
U2C A96C | 1.85
G1U A94G | 0.76
U2C A140U | 1.55
U2C A66U | 0.2

Variant | self-cleavage
U2C A66G | 1.45
U2A A23U | 1.24
U2A A62G | 1.23
U3C A62U | 1.22
U3C A62G | 0.96
U2A A64G | 1.24
U2A A47G | 1.42
U2A A47U | 0.78
U2C A23U | 1.22
U3C A78U | 0.51
U3C C71A | 0.16
U3C C71U | 0.12
U2C A135G | 1.32
U2C G106A | 0.03
U3A A95G | 1.42
U3C A114G | 0.47
A4G G41A | 1.43
A4G G15C | 1.28
U2C A116G | 0.6
U3C A67G | 0.97
U2C A60G | 1.02
U3C U132A | 1.58
A4G A36U | 0.79
